Molecular target: integral membrane proteins of stripped rat liver cell membranes (rat (endogenous in liver))
Test: co-sedimentation

Kd: 1600 nM
Substance: Actin, isolated from rabbit skeletal muscle, 125I-labeled (from UniProt P68135 1-377) (natural protein)
